Source: PMC5114622, “In vivo protein interaction network analysis reveals porin-localized antibiotic inactivation in Acinetobacter baumannii strain AB5075” (Nature Communications, 2016)
Values joined by “and” are separate entries in the source; they are usually repeats but may differ in a detail not shown here. Identical values can stand only once.

Target: the molecule itself
Assay: cross-linking + co-IP; AB5075-pMMB-oxa23 cells cross-linked with BDP-NHP, lysates denatured with SDS, anti-HA agarose IP; immunoblots with anti-HA, anti-OmpA, streptavidin; DMSO-treated control

B1: Oxa23-HA-Strep (enzyme)
chain: CTVQHNLINETPSQIVQGHNQVIHQYFDEKNTSGVLVIQTDKKINLYGNALSRANTEYVPASTFKMLNALIGLENQKTDINEIFKWKGEKRSFTAWEKDMTLGEAMKLSAVPVYQELARRIGLDLMQKEVKRIGFGNAEIGQQVDNFWLVGPLKVTPIQEVEFVSQLAHTQLPFSEKVQANVKNMLLLEESNGYKIFGKTGWAMDIKPQVGWLTGWVEQPDGKIVAFALNMEMRSEMPASIRNELLMKSLKQLNII
notes: Oxa-23 of Acinetobacter baumannii AB5075; oxa-23 gene with the TAA stop codon omitted so that the HA-Strep tag of the pMMB vector follows; I take the same for this construct and that the signal peptide is cut on export; also called Oxa-23 with C-terminal HA-Strep tags; tagged Oxa-23; source: A. baumannii AB5075 WT cells transformed with pMMB-oxa23-HA-Strep (AB5075-pMMB-oxa23), in lysate; not …
  stoichiometry N: 2 and 4
